{
  "source": "patent US20210069338A1",
  "key": {"[1]": {"target": "Ac-PYY(PEG3-Cys-PEG2-5-Fluo) / Ac-IK(PEG3-Cys-PEG2-5-Fluo)-Pqa-…-MeArg-Y-NH2", "test": "mass spectrometry of the covalent disulfide conjugate, 2.5:1 peptide to antibody, no redox agents"}, "[2]": {"target": "Ac-PYY(PEG3-Cys-4Abu-NH2) / Ac-IK(PEG3-Cys-4Abu-NH2)-Pqa-…-MeArg-Y-NH2", "test": "mass spectrometry, non-haptenylated peptide 2.1:1 to antibody"}, "[3]": {"target": "PEG3-PYY(PEG3-Cys-4Abu-Dig) / PEG3-IK(PEG3-Cys-4Abu-Dig)-Pqa-…-MeArg-Y-NH2", "test": "mass spectrometry of the covalent disulfide conjugate, 2:1 peptide to antibody, 1 mM GSH / 5 mM GSSG"}, "[4]": {"target": "Ac-PYY(PEG3-Cys-4Abu-Dig) / Ac-IK(PEG3-Cys-4Abu-Dig)-Pqa-…-MeArg-Y-NH2", "test": "mass spectrometry of the covalent disulfide conjugate, 2:1 peptide to antibody, no redox agents"}, "[5]": {"target": "helicar motif amino acid sequence cysteine variant 2, …(5-Fluo)-OH x TFA", "test": "covalent disulfide coupling, 2.5 molar excess of peptide"}},
  "data": [
    {"binder": "anti-fluorescein antibody VH52bC (antibody, V domains shown) VH: GVKLDETGGGLVQPGGAMKLSCVTSGFTFGHYWMNWVRQSPEKGLEWVAQFRNCPYNYETYYSDSVKGRFTISRDDSKSSVYLQMNNLRVEDTGIYYCTGASYGMEYLGQGTSVTVSS VL: DVVMTQTPLSLPVSLGDQASISCRSSQSLVHSNGNTYLRWYLQKPGQSPKVLIYKVSNRVSGVPDRFSGSGSGTDFTLKINRVEAEDLGVYFCSQSTHVPWTFGGGTKLEIK", "values": [
      {"measurement": "% of detected species = antibody coupled to 1 peptide molecule", "setting": "[1]", "value": 5, "unit": "%"},
      {"measurement": "% of detected species = antibody coupled to 2 peptide molecules", "setting": "[1]", "value": 95, "unit": "%"}
    ]},
    {"binder": "anti-fluorescein antibody VH28C (antibody, from a related filing, V domains shown, part only) VH: GVKLDETGGGLVQPGGAMKLSCVTSGFCFGHYWMNWVRQSPEKGLEWVAQFRNKPYNYETYYSDSVKGRFTISRDDSKSSVYLQMNNLRVEDTGIYYCTGASYGMEYLGQGTSVTVSS VL: DVVMTQTPLSLPVSLGDQASISCRSSQSLVHSNGNTYLRWYLQKPGQSPKVLIYKVSNRVSGVPDRFSGSGSGTDFTLKINRVEAEDLGVYFCSQSTHVPWTFGGGTKLEIK", "values": [
      {"measurement": "% of detected species = antibody coupled to 2 peptide molecules", "setting": "[1]", "value": 100, "unit": "%"}
    ]},
    {"binder": "humanized anti-digoxigenin antibody VH52bC (antibody, from a related filing, V domains shown) VH: QVQLVESGGGLVKPGGSLRLSCAASGFTFSDYAMSWIRQAPGKGLEWVSSINICATYIYYADSVKGRFTISRDNAKNSLYLQMNSLRAEDTAVYYCARPGSPYEYDKAYYSMAYWGQGTTVTVSS VL: DIQMTQSPSSLSASVGDRVTITCRASQDIKNYLNWYQQKPGKAPKLLIYYSSTLLSGVPSRFSGSGSGTDFTLTISSLQPEDFATYYCQQSITLPPTFGCGTKVEIK", "values": [
      {"measurement": "% of detected species = antibody coupled to 1 peptide molecule", "setting": "[2]", "value": 51, "unit": "%"},
      {"measurement": "% of detected species = antibody coupled to 2 peptide molecules", "setting": "[2]", "value": 17, "unit": "%"},
      {"measurement": "% of detected species = uncoupled antibody", "setting": "[2]", "value": 32, "unit": "%"},
      {"measurement": "% of detected species = antibody coupled to 1 peptide molecule", "setting": "[3]", "value": 46, "unit": "%"},
      {"measurement": "% of detected species = antibody coupled to 2 peptide molecules", "setting": "[3]", "value": 43, "unit": "%"},
      {"measurement": "% of detected species = uncoupled antibody", "setting": "[3]", "value": 11, "unit": "%"},
      {"measurement": "% of detected species = antibody coupled to 1 peptide molecule", "setting": "[4]", "value": 40, "unit": "%"},
      {"measurement": "% of detected species = antibody coupled to 2 peptide molecules", "setting": "[4]", "value": 7.4, "unit": "%"},
      {"measurement": "% of detected species = uncoupled antibody", "setting": "[4]", "value": 52, "unit": "%"}
    ]},
    {"binder": "humanized anti-digoxigenin antibody (antibody, from a related filing, V domains shown) VH: QVQLVESGGGLVKPGGSLRLSCAASGFTFSDYAMSWIRQAPGKGLEWVSSINIGATYIYYADSVKGRFTISRDNAKNSLYLQMNSLRAEDTAVYYCARPGSPYEYDKAYYSMAYWGQGTTVTVSS VL: DIQMTQSPSSLSASVGDRVTITCRASQDIKNYLNWYQQKPGKAPKLLIYYSSTLLSGVPSRFSGSGSGTDFTLTISSLQPEDFATYYCQQSITLPPTFGGGTKVEIK", "values": [
      {"measurement": "% of detected species = uncoupled antibody", "setting": "[2]", "value": 100, "unit": "%"}
    ]},
    {"binder": "anti-helicar motif amino acid sequence antibody (0155), light chain variable domain N55C variant (antibody, V domains shown) V domain 1: QAVVTQEPSLTVSPGGTVTLTCGSSTGAVTTSNYASWVQQKPGQAFTGLIGGTNNRAPWTPARFSGSLLGGKAALTLSGAQPEDEAEYYCALWYSNHWVFGGGTKLTVL V domain 2: DAVVTQESALTTSPGETVTLTCRSSTGAVTTSNYASWVQEKPDHLFTGLIGGTNCRAPGVPARFSGSLIGDKAALTITGAQTEDEAIYFCALWYSNHWVFGGGTKLTVL", "values": [
      {"measurement": "% of antibody covalently conjugated to one helicar motif amino acid sequence", "setting": "[5]", "value": 40, "unit": "%"},
      {"measurement": "% of antibody covalently conjugated to two helicar motif amino acid sequences", "setting": "[5]", "value": 43, "unit": "%"},
      {"measurement": "% of antibody not conjugated", "setting": "[5]", "value": 17, "unit": "%"}
    ]}
  ]
}
